The assay has as its target T1, GPR39 (G protein-coupled receptor 39) (Homo sapiens (Human), UniProt O43194 1-453).
T1 sequence: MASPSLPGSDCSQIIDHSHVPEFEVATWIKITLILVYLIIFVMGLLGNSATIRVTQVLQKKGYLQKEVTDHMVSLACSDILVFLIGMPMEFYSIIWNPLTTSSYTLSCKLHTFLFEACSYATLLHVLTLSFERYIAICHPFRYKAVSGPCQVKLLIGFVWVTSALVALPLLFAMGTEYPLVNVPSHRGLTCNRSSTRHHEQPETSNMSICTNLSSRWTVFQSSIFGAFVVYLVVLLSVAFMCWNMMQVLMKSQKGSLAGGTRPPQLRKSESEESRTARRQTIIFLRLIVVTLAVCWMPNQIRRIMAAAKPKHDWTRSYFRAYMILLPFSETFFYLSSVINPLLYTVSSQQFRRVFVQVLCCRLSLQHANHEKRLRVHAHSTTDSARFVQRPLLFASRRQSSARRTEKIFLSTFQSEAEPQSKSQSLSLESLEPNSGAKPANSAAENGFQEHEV
Put plainly: cell-based or functional assay.

Numbered stars: 1 amine (or outer) side, 2 acyl side, 3 side chain; on linkers, the order of the positions; unused ones are H or OH. Square brackets hold non-standard residues; d marks the D form. Ends that are not written are not given here. * marks the point of attachment. DAMP‑2 = His whose imidazole is a 1,3-bis(2-cyclohexylethyl)-2,3-dihydro-1H-imidazol-4-yl group, O=C([C@H](CC1=CN(CCC2CCCCC2)CN1CCC1CCCCC1)N[*:1])[*:2]; DAMP‑3 = His whose imidazole is a 1,3-diphenethyl-2,3-dihydro-1H-imidazol-4-yl group, O=C([C@H](CC1=CN(CCc2ccccc2)CN1CCc1ccccc1)N[*:1])[*:2]; 1,2‑diphenyl = His whose imidazole is a 1,2-diphenyl-1H-imidazol-4-yl group, O=C([C@H](Cc1cn(-c2ccccc2)c(-c2ccccc2)n1)N[*:1])[*:2]; tbm = (2'-(1H-tetrazol-5-yl)-[1,1'-biphenyl]-4-yl)methyl on the histidine imidazole nitrogen, c1ccc(-c2nn[nH]n2)c(-c2ccc(C*)cc2)c1; 2‑(4-tert-butyl)phenyl = His carrying a 2-(4-tert-butylphenyl) group on the imidazole (imidazole C2), CC(C)(C)c1ccc(*)cc1; DAMP‑5 = His whose imidazole is a 3-(2-cyclohexylethyl)-2,3-dihydro-1H-imidazol-4-yl group; thiophene = His carrying a thiophen-2-yl group on the imidazole (imidazole C2), c1csc(*)c1; 1‑phenyl = His whose imidazole is a 1-phenyl-1H-imidazol-4-yl group, c1ccc(*)cc1; 2‑phenyl = His whose imidazole is a 2-phenyl-1H-imidazol-4-yl group; Biotin = O=C1N[C@H]2[C@H](CS[C@H]2CCCCC(=O)*)N1; dPhe(4-CF3) = N[C@H](Cc1ccc(C(F)(F)F)cc1)C(=O)O; 1‑(4-tert-butyl)phenyl = CC(C)(C)c1ccc(*)cc1; dPhe(4-Cl) = N[C@H](Cc1ccc(Cl)cc1)C(=O)O; dPhe(4-Me) = Cc1ccc(C[C@@H](N)C(=O)O)cc1; Trt = c1ccc(C(c2ccccc2)(c2ccccc2)*)cc1; CH2(1-naphthyl) = c1ccc2c(C*)cccc2c1; Benzhydryl = c1ccc(C(c2ccccc2)*)cc1; 2‑cyclohexylethyl = C1CCC(CC*)CC1; Tos = Cc1ccc(S(=O)(=O)*)cc1; Octanoyl = CCCCCCCC(=O)*

Regarding H(Benzhydryl)K(Octanoyl)[dPhe(4-Me)][Tyr(3-chloro)] [HKFY-67], the “EC50 (luciferase reporter)” value is 43 nM and the “ECmax (-fold induction over basal)” value is 10.2 -fold induction over basal. Take Biotin-H(Benzhydryl)K(Octanoyl)[dPhe(4-Me)]Y [HKFY-72]: the “EC50 (luciferase reporter)” value stood at 11 nM and the “ECmax (-fold induction over basal)” value was 10.4 -fold induction over basal. The corresponding values for H(Trt)K(Octanoyl)[dF]Y [HKFY-12] are 35 nM and 20.7 -fold induction over basal. For [dH](Benzhydryl)K(Octanoyl)[dPhe(4-Me)]Y [HKFY-62] the same measures were 830 nM and 28.1 -fold induction over basal. The corresponding values for H(1‑(4-tert-butyl)phenyl)K(Octanoyl)[dPhe(4-Me)]Y [HKFY-61] are 20 nM and 9.88 -fold induction over basal. For Lys(Octanoyl)-Phe-Tyr [HKFY-54], the “EC50 (luciferase reporter)” value is 25900 nM and the “ECmax (-fold induction over basal)” value is 7.8 -fold induction over basal.

Turning to H(Trt)K(Octanoyl)FS [HKFY-50], the “EC50 (luciferase reporter)” value was 700 nM and the “ECmax (-fold induction over basal)” value is 16.2 -fold induction over basal. As to H(Trt)K(Octanoyl)[dPhe(4-CF3)]Y [HKFY-76], the “EC50 (luciferase reporter)” value stood at 7 nM and the “ECmax (-fold induction over basal)” value was 14.2 -fold induction over basal. The corresponding values for H(2‑(4-tert-butyl)phenyl)K(Octanoyl)[dPhe(4-Me)]Y [HKFY-60] are 190 nM and 28.2 -fold induction over basal.

For the molecule HK(Octanoyl)FY (not fully specified (residue 1)) [HKFY-9], the “EC50 (luciferase reporter)” value was 42700 nM and the “ECmax (-fold induction over basal)” value was 21 -fold induction over basal. The corresponding values for Biotin-H(Trt)K(Octanoyl)FY [HKFY-2] are 140 nM and 15 -fold induction over basal. For H(Benzhydryl)K(Octanoyl)[dPhe(4-Me)][Tyr(3-nitro)] [HKFY-68] the same measures were 13 nM and 10.8 -fold induction over basal.

H(Trt)K(Octanoyl)FY [HKFY-1]: the “EC50 (luciferase reporter)” value worked out at 150 nM and the “ECmax (-fold induction over basal)” value is 20.5 -fold induction over basal. For H(thiophene)K(Octanoyl)[dPhe(4-Me)]Y [HKFY-63] the same measures were 6 nM and 13.5 -fold induction over basal. For [dH](Trt)K(Octanoyl)[dPhe(4-Cl)][dY] [HKFY-14] the same measures were 20 nM and 20.9 -fold induction over basal. The corresponding values for H(Trt)GSK(Octanoyl)FY [HKFY-53] are 340 nM and 8 -fold induction over basal.

With H(4‑hydroxybenzhydryl)K(Octanoyl)[dPhe(4-Me)]Y [HKFY-65], the “EC50 (luciferase reporter)” value turned out to be 3 nM and the “ECmax (-fold induction over basal)” value was 18.3 -fold induction over basal. In the case of H(Benzhydryl)K(Octanoyl)[dPhe(4-Me)][Tyr(3-amino)] [HKFY-70], the “EC50 (luciferase reporter)” value was 20 nM and the “ECmax (-fold induction over basal)” value is 10.1 -fold induction over basal.

Take H(DAMP‑5)K(Octanoyl)FY [HKFY-7]: the “EC50 (luciferase reporter)” value came to 1560 nM and the “ECmax (-fold induction over basal)” value is 16 -fold induction over basal.

B1: HKFY-77 (peptide)
peptide: H(tbm)K(Octanoyl)FY
modifications: not fully specified (residue 3); printed as His(tbm)-Lys(caprylic)-d-Phe(4-CF3)-Tyr
For B1, the “EC50 (luciferase reporter)” value came out at 7 nM and the “ECmax (-fold induction over basal)” value is 11.6 -fold induction over basal. The corresponding values for H(2‑cyclohexylethyl)K(Octanoyl)FY [HKFY-11] are 57800 nM and 22 -fold induction over basal. On to H(2‑phenyl)K(Octanoyl)[dPhe(4-Me)]Y [HKFY-57], for which the “EC50 (luciferase reporter)” value was determined as 260 nM and the “ECmax (-fold induction over basal)” value was 8.5 -fold induction over basal. In the case of H(Trt)K(caproic)FYDQQARF [HKFY-56], the “ECmax (-fold induction over basal)” value is 14.9 -fold induction over basal. Take H(Trt)K(Octanoyl)[dPhe(4-Cl)][dY] [HKFY-15]: the “EC50 (luciferase reporter)” value came out at 98 nM and the “ECmax (-fold induction over basal)” value was 24.7 -fold induction over basal. The corresponding values for K(Octanoyl)H(Trt)FY [HKFY-55] are 2490 nM and 16.8 -fold induction over basal. As to H(Trt)K(Octanoyl)LY [HKFY-51], the “EC50 (luciferase reporter)” value worked out at 120 nM and the “ECmax (-fold induction over basal)” value was 14.4 -fold induction over basal.

With H(Benzhydryl)K(Octanoyl)[dPhe(4-Me)]Y-NH2 [HKFY-66], the “EC50 (luciferase reporter)” value was 11 nM and the “ECmax (-fold induction over basal)” value was 20.2 -fold induction over basal. Turning to H(1,2‑diphenyl)K(Octanoyl)[dPhe(4-Me)]Y [HKFY-59], the “EC50 (luciferase reporter)” value is 550 nM and the “ECmax (-fold induction over basal)” value is 6.76 -fold induction over basal. The corresponding values for H(Tos)K(Octanoyl)[dPhe(4-Me)]Y [HKFY-75] are 1 nM and 15.9 -fold induction over basal. For H(Trt)FYDQQARF (not fully specified; printed as His(trt)-Phe-Tyr-Asp-Gln-Gln-Ala-Arg-Phe) [HKFY-52] the same measures were 56400 nM and 15.5 -fold induction over basal.

As to H(4‑methyltrityl)K(Octanoyl)FY [HKFY-5], the “EC50 (luciferase reporter)” value worked out at 1840 nM and the “ECmax (-fold induction over basal)” value was 16 -fold induction over basal. Regarding H(DAMP‑2)K(Octanoyl)FY [HKFY-8], the “EC50 (luciferase reporter)” value came to 33600 nM and the “ECmax (-fold induction over basal)” value was 17.3 -fold induction over basal. The corresponding values for H(1‑phenyl)K(Octanoyl)[dPhe(4-Me)]Y [HKFY-58] are 20 nM and 9.12 -fold induction over basal. For H(4‑methoxybenzhydryl)K(Octanoyl)[dPhe(4-Me)]Y [HKFY-64] the same measures were 7 nM and 16 -fold induction over basal. Turning to His(Benzhydryl)-Lys(Octanoyl) [HKFY-79], the “EC50 (luciferase reporter)” value came to 970 nM and the “ECmax (-fold induction over basal)” value is 11.2 -fold induction over basal. The corresponding values for H(Trt)K(Octanoyl)[dPhe(4-Cl)]Y [HKFY-13] are 14 nM and 25.7 -fold induction over basal. For H(DAMP‑3)K(Octanoyl)FY [HKFY-6] the same measures were 68400 nM and 15 -fold induction over basal. The corresponding values for H(CH2(1-naphthyl))K(Octanoyl)FY [HKFY-10] are 46500 nM and 14 -fold induction over basal.

For H(Benzhydryl)K(Octanoyl)[dPhe(4-Me)][Tyr(3,5-nitro)] [HKFY-69], the “EC50 (luciferase reporter)” value stood at 15 nM and the “ECmax (-fold induction over basal)” value is 12.2 -fold induction over basal.

The values are drawn from patent US20230212222A1 (ANYGEN CO., LTD., priority 2020, published 2023).
